Where no end group is shown, it is not given here.
Molecular target: T1, Rb-E2F binding (RbNP construct, E2FTMR peptide) (Homo sapiens, UniProt P06400, DEL245-267/DEL582-642)
T1 construct: lacks the internal loops in each domain (residues 53-787, Δ245-267, Δ582-642)
Assay: Fluorescence polarization titration of RbNP into E2FTMR
Details: RbNP titrated into 10 nM E2FTMR
Source text: The inventors have designed and successfully implemented a high-throughput fluorescence polarization assay to screen molecules for their modulation of Rb-E2F binding affinity. In the current exemplary format, a peptide corresponding to the E2F transactivation domain (E2F2 amino acids 409-428) was synthesized with a tetramethylrhodamine dye (TMR) at its N-terminus (E2FTMR). This peptide can then be mixed with various Rb constructs, which bind the peptide and change the polarization of the TMR fluorescence. For initial experiments, the investigators have used an Rb construct RbNP, which contains the Rb N-terminal domain and pocket domain but lacks the internal loops in each domain (residues 53-787, Δ245-267, Δ582-642).
The affinity of E2FTMR for unphosphorylated Rb is approximately 7-fold tighter than its affinity for phosphorylated RbNP. In the presence of 10 μM synthetic peptide that contains the ‘L×C×E’ sequence from the E7 oncoprotein, phosphorylated Rb binds E2F with 2-fold higher affinity. This peptide, which has a similar effect in calorimetry measurements of affinity, binds near the RbN-pocket interface, and the investigators predict it inhibits interdomain docking.

T1 sequence (P06400 with tags, fused parts or gaps DEL245-267/DEL582-642, one chain of several): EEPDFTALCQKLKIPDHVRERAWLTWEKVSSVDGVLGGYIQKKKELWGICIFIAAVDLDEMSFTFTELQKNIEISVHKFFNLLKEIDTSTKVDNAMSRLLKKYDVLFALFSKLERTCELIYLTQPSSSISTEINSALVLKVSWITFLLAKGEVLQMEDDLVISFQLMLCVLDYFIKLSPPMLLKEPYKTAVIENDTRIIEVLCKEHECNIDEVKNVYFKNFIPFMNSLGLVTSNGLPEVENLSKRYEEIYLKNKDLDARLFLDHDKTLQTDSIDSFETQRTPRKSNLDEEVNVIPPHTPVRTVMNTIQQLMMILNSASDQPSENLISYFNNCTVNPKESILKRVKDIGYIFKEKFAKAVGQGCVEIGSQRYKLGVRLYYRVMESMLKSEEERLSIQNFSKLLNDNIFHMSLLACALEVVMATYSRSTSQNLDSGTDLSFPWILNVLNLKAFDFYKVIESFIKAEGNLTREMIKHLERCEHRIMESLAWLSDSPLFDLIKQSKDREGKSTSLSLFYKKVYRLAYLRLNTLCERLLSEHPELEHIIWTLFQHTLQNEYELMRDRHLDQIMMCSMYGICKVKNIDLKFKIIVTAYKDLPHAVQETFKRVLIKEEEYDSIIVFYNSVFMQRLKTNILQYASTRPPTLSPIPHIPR

**Q.** “E2FTMR: peptide corresponding to the E2F transactivation domain (E2F2 amino acids 409-428) with a tetramethylrhodamine dye at its N-terminus (tetramethylrhodamine-QDDYLWGLEAGEGISDLFDS; UniProt Q14209 409-428, looked up, fragment)” was tested. Which “Affinity of E2FTMR for unphosphorylated Rb relative to phosphorylated RbNP” value did it give?
**A.** approximately 7 fold

Source: patent US20160202264A1, “A high-throughput assay to identify molecules that modulate Rb-E2F binding” (The Regents of the University of California, priority 2013, published 2016)
